Data reported in PMC3030345 (The Journal of Biological Chemistry, 2010).

Target: the molecule itself
Assay: atomic force microscopy

B1: A3G-H248A/H250A-Myc-His (enzyme, human, UniProt Q9HC16 1-384, looked up)
chain: MKPHFRNTVERMYRDTFSYNFYNRPILSRRNTVWLCYEVKTKGPSRPPLDAKIFRGQVYSELKYHPEMRFFHWFSKWRKLHRDQEYEVTWYISWSPCTKCTRDMATFLAEDPKVTLTIFVARLYYFWDPDYQEALRSLCQKRDGPRATMKIMNYDEFQHCWSKFVYSQRELFEPWNNLPKYYILLHIMLGEILRHSMDPPTFTFNFNNEPWVRGRHETYLCYEVERMHNDTWVLLNQRRGFLCNQAPAKAGFLEGRHAELCFLDVIPFWKLDLDQDYRVTCFTSWSPCFSCAQEMAKFISKNKHVSLCIFTARIYDDQGRCQEGLRTLAEAGAKISIMTYSEFKHCWDTFVDHQGCPFQPWDGLDEHSQDLSGRLRAILQNQEN
stoichiometry N: 2
